Laboratory results from the supplement of paper PMC7877785.
± gives the uncertainty stated by the source.

Assay: self-splicing fitness, log relative to wild type (ln ratio); higher = more splicing; Tetrahymena group I intron in knt gene, E. coli kanamycin selection, DiMSum; sequences stand for … in CUCUCU…GGAGGGAAAAGUUAUCAGGCAUGCACCUGGUAGCUAGUCUUUAAACCAAUAGAUUGCAUCGGUUUAAAAGGCAAGACCGUCAAAUUGCGGGAAAGGGGUCAACAGCCGUUCAGUACCAAGUCUCAGGGGAAACUUUGAGAUGGCCUUGCAAAGGGUAUGGUAAUAAGCUGACGGACAUGGUCCUAACCACGCAGCCAAGUCCUAAGUCAACAGAUCUUCUGUUGAUAUGGAUGCAGUUCACAGACUAAAUGUCGGUCGGGGAAGAUGUAUUCUUCUCAUAAGAUAUAGUCGGACCUCUCCUUAAUGGGAGCUAGCGGAUGAAGUGAUGCAACACUGGAGCCGCUGGGAACUAAUUUGUAUGCGAAAGUAUAUUGAUUAGUUUUGGAGUACUCGUGGUCG
In short: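 Fitness was computed with DiMSum as the error-weighted combination of replicate fold changes, kanamycin versus none, each normalised to wild type. The library randomised all eight intron nucleotides of the P1ex region, with the intron placed in the knt kanamycin-resistance gene on pET-22b(+) in E. coli BL21(DE3). Six replicate transformations were grown overnight at 37°C or 30°C on LB agar with or without 25 μg/mL kanamycin, plus 100 μg/mL carbenicillin, 50 μM IPTG and 0.2% rhamnose. Pooled colonies were amplicon-sequenced on an Illumina HiSeq 2500.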

| Sequence | self-splicing fitness (ln) (30 °C) | self-splicing fitness (ln) (37 °C) |
| --- | --- | --- |
| GGACAGCAAUAUUACGAUUC | -0.338 ± 0.063 | 0.353 ± 0.078 |
| GGACAGCAAUAUUACGCACA | -0.778 ± 0.09 | 0.0888 ± 0.1 |
| GGACAGCAAUAUUACGCAGG | -1.45 ± 0.1 | -0.578 ± 0.11 |
| GGACAGCAAUAUUACGCCCG | -0.653 ± 0.24 | -0.591 ± 0.28 |
| GGACAGCAAUAUUACGCCGU | -4.23 ± 0.46 | -3.05 ± 0.26 |
| GGACAGCAAUAUUACGCGCC | -2.93 ± 0.2 | – |
| GGACAGCAAUAUUACGCGGA | -0.693 ± 0.081 | 0.416 ± 0.074 |
| GGACAGCAAUAUUACGCGUU | -3.68 ± 0.16 | -2.62 ± 0.2 |
| GGACAGCAAUAUUACGGCAA | -1.32 ± 0.12 | -0.645 ± 0.12 |
| GGACAGCAAUAUUACGGCCA | -0.721 ± 0.077 | -0.225 ± 0.1 |
| GGACAGCAAUAUUACGGGCU | -1.89 ± 0.14 | -0.458 ± 0.13 |
| GGACAGCAAUAUUACGGGGG | -2.84 ± 0.13 | -3.18 ± 0.22 |
| GGACAGCAAUAUUACGUAAU | -0.0161 ± 0.056 | -0.0127 ± 0.07 |
| GGACAGCAAUAUUACGUAGA | -0.242 ± 0.08 | -0.126 ± 0.091 |
| GGACAGCAAUAUUACGUCUA | -0.35 ± 0.081 | -0.114 ± 0.097 |
| GGACAGCAAUAUUACGUGCC | -3.78 ± 0.19 | -2.02 ± 0.21 |
| GGACAGCAAUAUUACGUUAU | -0.282 ± 0.046 | 0.102 ± 0.066 |
| GGACAGCAAUAUUACGUUGC | -4.57 ± 0.24 | -2.83 ± 0.18 |
| GGAGAGCAAUAUUACGAAUU | -3.13 ± 0.49 | -2.27 ± 0.4 |
| GGAGAGCAAUAUUACGAGUU | -4 ± 0.35 | – |
| GGAGAGCAAUAUUACGAUGC | -2.8 ± 0.33 | -0.975 ± 0.22 |
| GGAGAGCAAUAUUACGCAAG | – | -3.71 ± 0.46 |
| GGAGAGCAAUAUUACGCUUG | -3.1 ± 0.16 | -2.01 ± 0.21 |
| GGAGAGCAAUAUUACGGAGG | -2.93 ± 0.48 | -0.819 ± 0.23 |
| GGAGAGCAAUAUUACGGCCA | -2.34 ± 0.36 | -1.21 ± 0.35 |

| Sequence | self-splicing fitness (ln) (30 °C) | self-splicing fitness (ln) (37 °C) |
| --- | --- | --- |
| GGAGAGCAAUAUUACGGGAA | -2.58 ± 0.33 | -2.58 ± 0.38 |
| GGAGAGCAAUAUUACGGGAU | -4.2 ± 0.36 | -3.23 ± 0.35 |
| GGAGAGCAAUAUUACGGGCG | -3.79 ± 0.29 | -2.37 ± 0.26 |
| GGAGAGCAAUAUUACGGGGC | -3.01 ± 0.27 | -2.71 ± 0.44 |
| GGAGAGCAAUAUUACGGGGG | – | -1.49 ± 0.46 |
| GGAGAGCAAUAUUACGGUCU | – | -2.31 ± 0.48 |
| GGAGAGCAAUAUUACGUAAC | -1.69 ± 0.11 | -0.596 ± 0.15 |
| GGAGAGCAAUAUUACGUAGU | -1.91 ± 0.19 | -2.15 ± 0.3 |
| GGAUAGCAAUAUUACGACCU | 0.689 ± 0.32 | 0.93 ± 0.25 |
| GGAUAGCAAUAUUACGCCAG | -2.63 ± 0.32 | -0.526 ± 0.34 |
| GGAUAGCAAUAUUACGCGCG | -1.25 ± 0.13 | 0.793 ± 0.15 |
| GGAUAGCAAUAUUACGCUCU | -1.63 ± 0.26 | – |
| GGAUAGCAAUAUUACGGGGU | – | -3.01 ± 0.35 |
| GGAUAGCAAUAUUACGGGUU | -2.16 ± 0.096 | -1.42 ± 0.12 |
| GGAUAGCAAUAUUACGUAGC | -3.55 ± 0.2 | -1.06 ± 0.16 |
| GGAUAGCAAUAUUACGUCUA | -0.367 ± 0.087 | -0.516 ± 0.088 |
| GGAUAGCAAUAUUACGUGUG | -1.91 ± 0.12 | -1.19 ± 0.14 |
| GGAUAGCAAUAUUACGUUAC | -1.87 ± 0.12 | -1.26 ± 0.15 |
| GGCAAGCAAUAUUACGAAUA | -1.45 ± 0.079 | -0.797 ± 0.083 |
| GGCAAGCAAUAUUACGAGCU | -2.69 ± 0.18 | -1.67 ± 0.23 |
| GGCAAGCAAUAUUACGAGGG | -2.89 ± 0.13 | -2.34 ± 0.14 |
| GGCAAGCAAUAUUACGAUAG | -2.73 ± 0.19 | -2.18 ± 0.14 |
| GGCAAGCAAUAUUACGAUCG | -0.12 ± 0.054 | -0.459 ± 0.066 |
| GGCAAGCAAUAUUACGAUGC | -2.36 ± 0.11 | -1.02 ± 0.12 |
| GGCAAGCAAUAUUACGCAAC | -2.24 ± 0.12 | -0.823 ± 0.1 |

| Sequence | self-splicing fitness (ln) (30 °C) | self-splicing fitness (ln) (37 °C) |
| --- | --- | --- |
| GGCAAGCAAUAUUACGCAGA | -1.23 ± 0.15 | -0.852 ± 0.16 |
| GGCAAGCAAUAUUACGCCCA | -1.95 ± 0.15 | -0.268 ± 0.12 |
| GGCAAGCAAUAUUACGCUAA | -0.671 ± 0.089 | 0.1 ± 0.12 |
| GGCAAGCAAUAUUACGCUCC | -2.93 ± 0.44 | -1.07 ± 0.36 |
| GGCAAGCAAUAUUACGCUUA | -0.449 ± 0.076 | 0.129 ± 0.1 |
| GGCAAGCAAUAUUACGGACC | -1.77 ± 0.18 | -0.606 ± 0.2 |
| GGCAAGCAAUAUUACGGAGU | -2.62 ± 0.12 | -0.542 ± 0.1 |
| GGCAAGCAAUAUUACGGCCG | -1.09 ± 0.11 | 0.00962 ± 0.13 |
| GGCAAGCAAUAUUACGGGGA | -3.51 ± 0.26 | -1.31 ± 0.3 |
| GGCAAGCAAUAUUACGGGUG | -0.914 ± 0.055 | -0.195 ± 0.066 |
| GGCAAGCAAUAUUACGUACA | -0.414 ± 0.071 | 0.296 ± 0.094 |
| GGCAAGCAAUAUUACGUCUA | -0.593 ± 0.084 | 0.16 ± 0.085 |
| GGCAAGCAAUAUUACGUGAU | -0.97 ± 0.078 | -0.169 ± 0.092 |
| GGCAAGCAAUAUUACGUGCC | – | -1.47 ± 0.43 |
| GGCAAGCAAUAUUACGUGUC | -2.42 ± 0.11 | -3.08 ± 0.17 |
| GGCCAGCAAUAUUACGAAUA | -3.4 ± 0.36 | -2.71 ± 0.23 |
| GGCCAGCAAUAUUACGACCA | -1.46 ± 0.1 | -0.797 ± 0.11 |
| GGCCAGCAAUAUUACGACUG | -0.744 ± 0.12 | -0.348 ± 0.15 |
| GGCCAGCAAUAUUACGAGUC | -2.16 ± 0.14 | -1.24 ± 0.14 |
| GGCCAGCAAUAUUACGCACG | -1.18 ± 0.07 | -0.36 ± 0.082 |
| GGCCAGCAAUAUUACGCAUU | -0.554 ± 0.05 | 0.109 ± 0.067 |
| GGCCAGCAAUAUUACGCCAC | -4.58 ± 0.46 | -1.8 ± 0.49 |
| GGCCAGCAAUAUUACGCCUU | -2.04 ± 0.12 | -0.815 ± 0.097 |
| GGCCAGCAAUAUUACGCGGU | -3.63 ± 0.46 | -2.53 ± 0.34 |
| GGCCAGCAAUAUUACGCGUU | -0.164 ± 0.09 | 0.0494 ± 0.12 |

| Sequence | self-splicing fitness (ln) (30 °C) | self-splicing fitness (ln) (37 °C) |
| --- | --- | --- |
| GGCCAGCAAUAUUACGCUAA | -0.606 ± 0.09 | -0.303 ± 0.1 |
| GGCCAGCAAUAUUACGCUGU | -1.74 ± 0.08 | -1.37 ± 0.11 |
| GGCCAGCAAUAUUACGGAGU | -0.585 ± 0.063 | -0.166 ± 0.084 |
| GGCCAGCAAUAUUACGGAUG | -0.5 ± 0.08 | -0.503 ± 0.077 |
| GGCCAGCAAUAUUACGGCAG | -0.833 ± 0.058 | -0.191 ± 0.1 |
| GGCCAGCAAUAUUACGGCGU | -1.59 ± 0.098 | -0.69 ± 0.12 |
| GGCCAGCAAUAUUACGGUAU | -0.512 ± 0.06 | 0.47 ± 0.084 |
| GGCCAGCAAUAUUACGGUUG | -0.224 ± 0.062 | -0.166 ± 0.075 |
| GGCCAGCAAUAUUACGUAAU | -0.304 ± 0.098 | -0.62 ± 0.098 |
| GGCCAGCAAUAUUACGUGCA | -0.734 ± 0.078 | -0.196 ± 0.074 |
| GGCCAGCAAUAUUACGUGGA | -4.07 ± 0.25 | -2.49 ± 0.17 |
| GGCCAGCAAUAUUACGUGGC | -0.533 ± 0.25 | -1.69 ± 0.35 |
| GGCCAGCAAUAUUACGUUAU | -2.4 ± 0.13 | -0.702 ± 0.11 |
| GGCGAGCAAUAUUACGAACG | -1.57 ± 0.078 | 0.152 ± 0.091 |
| GGCGAGCAAUAUUACGAAGU | -2.81 ± 0.44 | -1.21 ± 0.19 |
| GGCGAGCAAUAUUACGAUGG | -2.32 ± 0.24 | – |
| GGCGAGCAAUAUUACGAUUA | -2.12 ± 0.22 | -1.44 ± 0.17 |
| GGCGAGCAAUAUUACGCUAA | -2.83 ± 0.32 | -1.02 ± 0.22 |
| GGCGAGCAAUAUUACGCUGC | -2.58 ± 0.39 | -0.462 ± 0.37 |
| GGCGAGCAAUAUUACGCUUC | -3.8 ± 0.34 | -2.53 ± 0.49 |
| GGCGAGCAAUAUUACGGAGU | -3.06 ± 0.4 | -1.68 ± 0.4 |
| GGCGAGCAAUAUUACGGAUG | -3.22 ± 0.19 | -1.7 ± 0.15 |
| GGCGAGCAAUAUUACGGCCU | -2.45 ± 0.23 | – |
